These results are taken from PMC10909901.

For test [1], the target named is AtWRKY22-YFP (Arabidopsis thaliana) (UniProt O04609). Nature of the test: FRET or BRET. In general terms: Bioluminescence resonance energy transfer reports proximity on the nanometre scale.
For test [2], the target named is RRS1-R-YFP (Arabidopsis thaliana) (UniProt C4B7M5). As to the kind of experiment: FRET or BRET.
Sequence of UniProt C4B7M5 (C4B7M5 whole entry): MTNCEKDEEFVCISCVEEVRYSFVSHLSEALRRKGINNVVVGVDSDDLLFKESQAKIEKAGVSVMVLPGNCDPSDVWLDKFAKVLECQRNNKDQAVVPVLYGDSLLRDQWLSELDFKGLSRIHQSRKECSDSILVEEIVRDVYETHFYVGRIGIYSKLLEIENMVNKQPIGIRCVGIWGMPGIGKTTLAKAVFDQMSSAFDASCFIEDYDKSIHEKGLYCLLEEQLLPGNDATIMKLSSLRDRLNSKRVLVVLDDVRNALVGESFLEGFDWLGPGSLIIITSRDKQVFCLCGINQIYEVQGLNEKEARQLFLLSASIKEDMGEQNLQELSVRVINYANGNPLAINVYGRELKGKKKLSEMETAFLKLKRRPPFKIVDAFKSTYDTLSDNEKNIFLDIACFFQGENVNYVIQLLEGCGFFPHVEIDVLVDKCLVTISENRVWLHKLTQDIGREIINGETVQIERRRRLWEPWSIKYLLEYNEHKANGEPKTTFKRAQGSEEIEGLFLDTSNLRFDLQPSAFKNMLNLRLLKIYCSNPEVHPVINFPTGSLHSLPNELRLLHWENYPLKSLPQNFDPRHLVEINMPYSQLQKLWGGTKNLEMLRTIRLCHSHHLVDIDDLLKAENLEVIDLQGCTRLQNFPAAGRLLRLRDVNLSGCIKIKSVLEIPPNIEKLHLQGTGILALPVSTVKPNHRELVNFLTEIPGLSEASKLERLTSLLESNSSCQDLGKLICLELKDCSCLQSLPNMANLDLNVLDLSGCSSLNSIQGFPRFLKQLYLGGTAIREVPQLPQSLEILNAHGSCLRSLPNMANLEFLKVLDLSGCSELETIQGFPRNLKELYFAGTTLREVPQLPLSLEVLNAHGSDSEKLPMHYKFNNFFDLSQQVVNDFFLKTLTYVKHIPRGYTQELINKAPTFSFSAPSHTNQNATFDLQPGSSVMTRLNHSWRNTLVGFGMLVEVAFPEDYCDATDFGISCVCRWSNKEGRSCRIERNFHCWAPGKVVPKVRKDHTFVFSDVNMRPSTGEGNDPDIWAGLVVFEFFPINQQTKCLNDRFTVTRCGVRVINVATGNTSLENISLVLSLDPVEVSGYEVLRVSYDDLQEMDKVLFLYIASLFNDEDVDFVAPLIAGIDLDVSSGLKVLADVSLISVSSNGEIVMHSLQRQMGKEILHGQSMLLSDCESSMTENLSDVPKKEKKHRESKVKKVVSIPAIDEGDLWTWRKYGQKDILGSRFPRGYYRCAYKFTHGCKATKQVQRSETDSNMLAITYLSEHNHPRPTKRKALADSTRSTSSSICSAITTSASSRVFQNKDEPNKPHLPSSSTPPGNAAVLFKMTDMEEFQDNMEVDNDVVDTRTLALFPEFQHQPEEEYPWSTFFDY

Sequence of UniProt O04609 (O04609 whole entry): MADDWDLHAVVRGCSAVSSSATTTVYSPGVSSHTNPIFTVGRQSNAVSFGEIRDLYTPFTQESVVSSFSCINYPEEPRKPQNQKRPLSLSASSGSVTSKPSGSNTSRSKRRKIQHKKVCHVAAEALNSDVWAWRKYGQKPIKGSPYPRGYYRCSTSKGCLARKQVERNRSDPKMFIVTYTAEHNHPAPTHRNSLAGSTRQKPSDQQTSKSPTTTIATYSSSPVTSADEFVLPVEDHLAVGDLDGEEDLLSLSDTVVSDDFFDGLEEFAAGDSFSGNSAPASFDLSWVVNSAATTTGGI

XopJ6^C409A-CFP (natural protein): in test [1], the FRET efficiency E was determined as 9.67% and the mean CFP donor lifetime T in the presence of the acceptor came to 3.36 ns. In addition, in test [2], the FRET efficiency E is 12.1%, the mean CFP donor lifetime T in the presence of the acceptor came to 3.27 ns and the Δt (decrease of donor lifetime) worked out at 452 ps.
Take XopJ6_(CN06)-CFP (natural protein): in test [1], the FRET efficiency E was 9.49%, the mean CFP donor lifetime T in the presence of the acceptor came out at 3.48 ns and the Δt (decrease of donor lifetime) came to 365 ps. Besides, in test [2], the FRET efficiency E stood at 15%, the mean CFP donor lifetime T in the presence of the acceptor was determined as 3.27 ns and the Δt (decrease of donor lifetime) was 578 ps.
